Marks after values point to notes of the source that are not given here.
Columns and labels:
CaM1-148 [1] = biological target: T1, CaM1-148 (Paramecium tetraurelia, UniProt P07463); assay: CaM titration of Fl-βCaNp, fluorescence anisotropy, CaM1-148; format: binding; details: CaM1-148, Ca2+-saturated (limiting value), 10 mM CaCl2, 100 nM Fl-βCaNp, stoichiometric titration, upper limit, pH 7.4, 22 °C
CaM1-148 [2] = biological target: T1, CaM1-148; assay: Population distribution of calcium ligation species
CaM C-domain vs N-domain = details: ref [15]; cited from earlier work
CaN [3] = details: cited from earlier work
CaN [4] = details: CaM binding to CaNA; ref [9],[10]; cited from earlier work
15N-(Ca^2+)4-CaM1-148 = assay: 15N T2 relaxation by NMR; format: physicochemical, Paramecium; details: 500 μM 15N-CaM1-148, 10-20% molar excess of peptide; 5 mM CaCl2, 50 mM HEPES, pH 7.4; 22 °C; 800 MHz; excluding mobile termini
(Ca^2+)4-CaM1-148 = (Ca^2+)4-CaM1-148 (Paramecium tetraurelia, UniProt P07463); details: Ca2+-CaM1-148 bound to melittin; 10 mM CaCl2; ref Sorensen et al [42]; cited from earlier work

In the case of `CC[C@H](C)[C@H](NC(=O)[C@H](C)NC(=O)[C@H](CCCNC(=N)N)NC(=O)[C@@H](NC(=O)[C@H](CCCCN)NC(=O)[C@H](CC(N)=O)NC(=O)[C@H](CCCNC(=N)N)NC(=O)[C@@H](NC(=O)[C@@H](NC(=O)[C@H](CCC(=O)O)NC(=O)[C@H](CCCCN)NC(=O)[C@H](CCCNC(=N)N)NC(=O)[C@H](C)N)[C@@H](C)CC)[C@@H](C)CC)[C@@H](C)CC)C(=O)NCC(=O)N[C@@H](CCCCN)C(=O)N[C@@H](CCSC)C(=O)N[C@@H](C)C(=O)N[C@@H](CCCNC(=N)N)C(=O)N[C@H](C(=O)N[C@@H](Cc1ccccc1)C(=O)N[C@@H](CO)C(=O)N[C@H](C(=O)N[C@@H](CC(C)C)C(=O)N[C@@H](CCCNC(=N)N)C(=O)O)C(C)C)C(C)C` [βCaNp], the Kd (CaM1-148 [1]) is reported as at most 1 nM and the “cooperativity term kI–II” value (CaM1-148 [2]; CaM1-148, presence of βCaNp) is reported as 19.90 M⁻¹.
In the case of “CaM1-148: full-length Paramecium CaM, residues 1-148”, the “cooperativity term kIII–IV” value (CaM1-148 [2]; CaM1-148, absence of βCaNp) is given as 54.39 M⁻¹, the “cooperativity term kI–II” value (CaM1-148 [2]; CaM1-148, absence of βCaNp) is given as 1.73 M⁻¹ and the “calcium affinity of C-domain relative to N-domain” value (CaM C-domain vs N-domain) is given as ~ 25 fold.
In the case of Calmodulin [CaM], the “Ca2+ concentration of maximal population of intermediate (0011)” value (CaM1-148 [2]; CaM alone, simulation) is given as 2 µM, the “maximal population of intermediate (0011)” value (CaM1-148 [2]; CaM alone, simulation) is given as 70% and the “dissociation constant of (Ca2+)4-CaM from CaN (range in words)” value (CaN [3]; ref [35]) is given as “low nM range”. The “Kd of full-length CaM from CaN (range in words)” value (CaN [3]; ref [36]) was “pM range” and the “increase of phosphatase activity of CaN” value (CaN [4]) was 10 fold.
For Mammalian CaM [mCaM], the “calcium affinity of C-domain relative to N-domain” value (CaM C-domain vs N-domain) is listed as “about 10 fold”.
For “Melittin: another peptide that forms a 1:1 complex with CaM (GIGAVLKVLTTGLPALISWIKRKRQQG)”, the “Average T2” value (15N-(Ca^2+)4-CaM1-148) is given as 0.050 ± 0.006 s and the “Stokes Radius” value ((Ca^2+)4-CaM1-148) is given as 22.94 ± 0.32 ^f Å.
